In this test the target is wild-type EGFR expressed on cells (human) (UniProt P00533). The experiment in a line: flow cytometry, A431 cells.

“FITC-conjugated goat anti-mouse Fc specific secondary antibody” showed an MFI of 185.

For the origin of these results see US20190144550A1.
